B1: GS3298 (nucleic acid)
sense: AUGCCUUACAAGGAGAAGAGGUCCGUGAGAAUUUUGACUCAUCUUUUGCCGCUCUUUAUCAUGAUCUUGAUAUGGGAUUUACACCGAUCAACUUUACAUUUUACUGGGCACCUCUACCUUGGAAUCGUGCUCGUGAUCAUGCCCAAAGAACUGUUGCUAGGACUUAUAUGAAUAUAAUCCAAGCUCGUAGAGAAGAGAAAACGUCAACAACCCCCCUCCUCUUCCCCUUCCCCUUCAUUGAACCUCGCUCCAAGGGGGCUUUAUGGGAAUCUGCCUCGUAGUAUAAAGUUCUGCAGCUGGCUCUACGGAUUGCAUCUACAACAACUACAACAUCAUCAUCAUCAUCAUCUUCAUCUUCAUCUUCUCCACCUUCAUAAGCUUCUACGUUUUUGCAUGUUCAA
antisense: UUGAACAUGCAAAAACGUAGAAGCUUAUGAAGGUGGAGAAGAUGAAGAUGAAGAUGAUGAUGAUGAUGAUGUUGUAGUUGUUGUAGAUGCAAUCCGUAGAGCCAGCUGCAGAACUUUAUACUACGAGGCAGAUUCCCAUAAAGCCCCCUUGGAGCGAGGUUCAAUGAAGGGGAAGGGGAAGAGGAGGGGGGUUGUUGACGUUUUCUCUUCUCUACGAGCUUGGAUUAUAUUCAUAUAAGUCCUAGCAACAGUUCUUUGGGCAUGAUCACGAGCACGAUUCCAAGGUAGAGGUGCCCAGUAAAAUGUAAAGUUGAUCGGUGUAAAUCCCAUAUCAAGAUCAUGAUAAAGAGCGGCAAAAGAUGAGUCAAAAUUCUCACGGACCUCUUCUCCUUGUAAGGCAU
B2: GS3297 (nucleic acid)
sense: GAGAAGAGGUCCGUGAGAAUUUUGACUCAUCUUUUGCCGCUCUUUAUCAUGAUCUUGAUAUGGGAUUUACACCGAUCAACUUUACAUUUUACUGGGCACCUCUACCUUGGAAUCGUGCUCGUGAUCAUGCCCAAAGAACUGUUGCUAGGACUUAUAUGAAUAUAAUCCAAGCUCGUACCCUCCUCUUCCCCUUCCCCUUCAUUGAACCUCGCUCCAAGGGGGCUUUAUGGGAAUCUGCCUCGUAGUAUAAAGUUCUGCAGCUGGCUCUACGGAUUGCAUCUACAACAACUACAACAUCAUCAUCAUCAUCAUCUUCAUCUUCAUCUUCUCCACCUUCAUAAGCUUCUACGUUUU
antisense: AAAACGUAGAAGCUUAUGAAGGUGGAGAAGAUGAAGAUGAAGAUGAUGAUGAUGAUGAUGUUGUAGUUGUUGUAGAUGCAAUCCGUAGAGCCAGCUGCAGAACUUUAUACUACGAGGCAGAUUCCCAUAAAGCCCCCUUGGAGCGAGGUUCAAUGAAGGGGAAGGGGAAGAGGAGGGUACGAGCUUGGAUUAUAUUCAUAUAAGUCCUAGCAACAGUUCUUUGGGCAUGAUCACGAGCACGAUUCCAAGGUAGAGGUGCCCAGUAAAAUGUAAAGUUGAUCGGUGUAAAUCCCAUAUCAAGAUCAUGAUAAAGAGCGGCAAAAGAUGAGUCAAAAUUCUCACGGACCUCUUCUC
B3: GS3303 (nucleic acid)
sense: UUACCCUACACCUACUGGAGGUUACUCUGAAGAGCCCUACCACUAUAAAGGUGUCAAGCUAGGUCAUUGAGAGGAUUGAGUUACGAAAUUUGAUUGCAGCCACGCCUUCGACUUCAACCGAGAAGAGUUCCAAUCUCCCUCUUAGACGCAGGACUACUCUCACGAUACUUCUGUCUCUACUUCUUCUCAUGAGCACGCUAAUACUCUCUAAGCCUCCGUUGAUGUGUUGAAAGACAGGCACCUCAGUUUUGAUUCUAUUCAGCUCGGCAAACAUGUUGUGUACAUUCAUAGACUGAAUUU
antisense: AAAUUCAGUCUAUGAAUGUACACAACAUGUUUGCCGAGCUGAAUAGAAUCAAAACUGAGGUGCCUGUCUUUCAACACAUCAACGGAGGCUUAGAGAGUAUUAGCGUGCUCAUGAGAAGAAGUAGAGACAGAAGUAUCGUGAGAGUAGUCCUGCGUCUAAGAGGGAGAUUGGAACUCUUCUCGGUUGAAGUCGAAGGCGUGGCUGCAAUCAAAUUUCGUAACUCAAUCCUCUCAAUGACCUAGCUUGACACCUUUAUAGUGGUAGGGCUCUUCAGAGUAACCUCCAGUAGGUGUAGGGUAA
B4: GS3304 (nucleic acid)
sense: GUUACGCAUCGCCAACAGGGACCAGUUACCCUACACCUACUGGAGGUUACUCUGAAGAGCCCUACCACUAUAAAGGUGUCAAGCUAGGUCAUUGAGAGGAUUGAGUUACGAAAUUUGAUUGCAGCCACGCCUUCGACUUCAACCGAGAAGAGUUCCAAUCUCCCUCUUAGACGCAGGACUACUCUCACGAUACUUCUGUCUCUACUUCUUCUCAUGAGCACGCUAAUACUCUCUAAGCCUCCGUUGAUGUGUUGAAAGACAGGCACCUCAGUUUUGAUUCUAUUCAGCUCGGCAAACAUGUUGUGUACAUUCAUAGACUGAAUUUCUUUUUUAUUAUUUUUUUCCAAAUA
antisense: UAUUUGGAAAAAAAUAAUAAAAAAGAAAUUCAGUCUAUGAAUGUACACAACAUGUUUGCCGAGCUGAAUAGAAUCAAAACUGAGGUGCCUGUCUUUCAACACAUCAACGGAGGCUUAGAGAGUAUUAGCGUGCUCAUGAGAAGAAGUAGAGACAGAAGUAUCGUGAGAGUAGUCCUGCGUCUAAGAGGGAGAUUGGAACUCUUCUCGGUUGAAGUCGAAGGCGUGGCUGCAAUCAAAUUUCGUAACUCAAUCCUCUCAAUGACCUAGCUUGACACCUUUAUAGUGGUAGGGCUCUUCAGAGUAACCUCCAGUAGGUGUAGGGUAACUGGUCCCUGUUGGCGAUGCGUAAC
B5: GS3302 (nucleic acid)
sense: UCUGAAGAGCCCUACCACUAUAAAGGUGUCAAGCUAGGUCAUUGAGAGGAUUGAGUUACGAAAUUUGAUUGCAGCCACGCCUUCGACUUCAACCGAGAAGAGUUCCAAUCUCCCUCUUAGACGCAGGACUACUCUCACGAUACUUCUGUCUCUACUUCUUCUCAUGAGCACGCUAAUACUCUCUAAGCCUCCGUUGAUGUGUUGAAAGACAGGCACCUCAGUUUUGAUUCUAUUCAGCUCGGCAAACAUG
antisense: CAUGUUUGCCGAGCUGAAUAGAAUCAAAACUGAGGUGCCUGUCUUUCAACACAUCAACGGAGGCUUAGAGAGUAUUAGCGUGCUCAUGAGAAGAAGUAGAGACAGAAGUAUCGUGAGAGUAGUCCUGCGUCUAAGAGGGAGAUUGGAACUCUUCUCGGUUGAAGUCGAAGGCGUGGCUGCAAUCAAAUUUCGUAACUCAAUCCUCUCAAUGACCUAGCUUGACACCUUUAUAGUGGUAGGGCUCUUCAGA
B6: GS3299 (nucleic acid)
sense: CACCAGGAUCCACCUAAAGAUGAGCCAACCGAUCAGAAGUCUCUGGAGCUGAGGAGAACCUUAUUUUAUAGUAUUUACUCUCUUGAUAGAUCUGUCAGUAUGGUUCACGCGCGCUCUUUUUCAUUUACCGACGAUUCGACUAGCGUUACUUUCCCAUCCAUUAAGAACGAGAAAUUACCAGUCGACACCAAAUUAAAACUAGGUAGGAAAUUCAAGAUUCAAUCCUCACUUUUAUUCAAACUUCGAAAGAUUCAGUCUUCAUGGUAUCACGAGCUUUUUCAAUCCAAAAAUGAUUUUAUAACAAAUCCAUCAACAUAUAUUCAGAAAGUGUGUCAAGAAAUGCAAGCAUGGGCUCAGUCGAUUCCCGAAUAUUUACCCACUCAUAUCAAAAAUUAUUU
antisense: AAAUAAUUUUUGAUAUGAGUGGGUAAAUAUUCGGGAAUCGACUGAGCCCAUGCUUGCAUUUCUUGACACACUUUCUGAAUAUAUGUUGAUGGAUUUGUUAUAAAAUCAUUUUUGGAUUGAAAAAGCUCGUGAUACCAUGAAGACUGAAUCUUUCGAAGUUUGAAUAAAAGUGAGGAUUGAAUCUUGAAUUUCCUACCUAGUUUUAAUUUGGUGUCGACUGGUAAUUUCUCGUUCUUAAUGGAUGGGAAAGUAACGCUAGUCGAAUCGUCGGUAAAUGAAAAAGAGCGCGCGUGAACCAUACUGACAGAUCUAUCAAGAGAGUAAAUACUAUAAAAUAAGGUUCUCCUCAGCUCCAGAGACUUCUGAUCGGUUGGCUCAUCUUUAGGUGGAUCCUGGUG
B7: GS3301 (nucleic acid)
sense: CAACAGGGACCAGUUACCCUACACCUACUGGAGGUUACUCUGAAGAGCCCUACCACUAUAAAGGUGUCAAGCUAGGUCAUUGAGAGGAUUGAGUUACGAAAUUUGAUUGCAGCCACGCCUUCGACUUCAACCGAGAAGAGUUCCAAUCUCCCUCUUAGACGCAGGACUACUCUCACGAUACUUCUGUCUCUACUUCUUCUCAUGAGCACGCUAAUACUCUCUAAGCCUCCGUUGAUGUGUUGAAAGACAGGCACCUCAGUUUUGAUUCUAUUCAGCUCGGCAAACAUGUUGUGUACAUUCAUAGACUGAAUUUCUUUUUUAUUAUUU
antisense: AAAUAAUAAAAAAGAAAUUCAGUCUAUGAAUGUACACAACAUGUUUGCCGAGCUGAAUAGAAUCAAAACUGAGGUGCCUGUCUUUCAACACAUCAACGGAGGCUUAGAGAGUAUUAGCGUGCUCAUGAGAAGAAGUAGAGACAGAAGUAUCGUGAGAGUAGUCCUGCGUCUAAGAGGGAGAUUGGAACUCUUCUCGGUUGAAGUCGAAGGCGUGGCUGCAAUCAAAUUUCGUAACUCAAUCCUCUCAAUGACCUAGCUUGACACCUUUAUAGUGGUAGGGCUCUUCAGAGUAACCUCCAGUAGGUGUAGGGUAACUGGUCCCUGUUG
B8: GS3300 (nucleic acid)
sense: GUAUCAACCAUUGCCUCUCCAAACCUUUCACCAACAACUUCCUUUUCAUCUUUUGUACGAACAGAAACGCCUGAUUCCAGUCUGCCAUUUAUAGAAAAUCCAGUGGCUAGACAAAAUGCACAUUGUAGUAGUAAGAGUGUUGGCAAUGGAAAUGGAAUUUUUAACUUGGACAUGAAUCUUUUGGCUUCUGCUGCUAUUAGGGUGGAAGGGAAUCACUCAUCAAACGCUUGUCAUCUCCCCCGAUACAAUAAAUCAUGCUGCGACCUCAGUGCGUACAAGAGUCGUUCUCAUUUUGCCUCAUCAUCACUUGUUCAGUCUCAUCCACCUCCGACAUUAGACAAGCUCAAUCAUUGCAUUAAGAGGUAUAUGAAGCGUUCACGAACUGACU
antisense: AGUCAGUUCGUGAACGCUUCAUAUACCUCUUAAUGCAAUGAUUGAGCUUGUCUAAUGUCGGAGGUGGAUGAGACUGAACAAGUGAUGAUGAGGCAAAAUGAGAACGACUCUUGUACGCACUGAGGUCGCAGCAUGAUUUAUUGUAUCGGGGGAGAUGACAAGCGUUUGAUGAGUGAUUCCCUUCCACCCUAAUAGCAGCAGAAGCCAAAAGAUUCAUGUCCAAGUUAAAAAUUCCAUUUCCAUUGCCAACACUCUUACUACUACAAUGUGCAUUUUGUCUAGCCACUGGAUUUUCUAUAAAUGGCAGACUGGAAUCAGGCGUUUCUGUUCGUACAAAAGAUGAAAAGGAAGUUGUUGGUGAAAGGUUUGGAGAGGCAAUGGUUGAUAC

Tested on: E. necator
Assay: Leaf disc assay, dry inoculum (settling tower), decrease in disease severity / hyphal growth (Example 2)
Settings: decrease in disease severity (hyphal growth) relative to untreated control, value ± SE; for % decrease =/− SE TP1: time point 1 (untreated control hyphal growth ≥50%); for % decrease =/− SE TP2: time point 2

Molecule	% decrease =/− SE TP1	% decrease =/− SE TP2
B1	22 ± 5%	7 ± 7%
B2	12 ± 6%	22 ± 7%
B3	35 ± 5%	15 ± 9%
B4		6 ± 7%
B5	31 ± 5%	22 ± 7%
B6		14 ± 7%
B7	32 ± 5%	0 ± 9%
B8	9 ± 5%	4 ± 8%
